According to patent US20180291083A1 (IMMATICS BIOTECHNOLOGIES, published 2018):

Target: T1, HLA-B*44:02 (human)
T1 construct: Peptide-receptive MHC class I monomer made by UV cleavage of a UV-sensitive ligand
Test: UV ligand exchange ELISA; exchange yield grade
From the text: Candidate peptides for T cell based therapies according to the present invention were further tested for their MHC binding capacity (affinity). The individual peptide-MHC complexes were produced by UV-ligand exchange, where a UV-sensitive peptide is cleaved upon UV-irradiation, and exchanged with the peptide of interest as analyzed. Only peptide candidates that can effectively bind and stabilize the peptide-receptive MHC molecules prevent dissociation of the MHC complexes. To determine the yield of the exchange reaction, an ELISA was performed based on the detection of the light chain (β2m) of stabilized MHC complexes. The assay was performed as generally described in Rodenko et al. (Rodenko et al., 2006).
96 well MAXISorp plates (NUNC) were coated over night with 2 ug/ml streptavidin in PBS at room temperature, washed 4× and blocked for 1 h at 37° C. in 2% BSA containing blocking buffer. Refolded HLA-A*02:01/MLA-001 monomers served as standards, covering the range of 15-500 ng/ml. Peptide-MHC monomers of the UV-exchange reaction were diluted 100-fold in blocking buffer. Samples were incubated for 1 h at 37° C., washed four times, incubated with 2 ug/ml HRP conjugated anti-β2m for 1 h at 37° C., washed again and detected with TMB solution that is stopped with […]. Absorption was measured at 450 nm. Candidate peptides that show a high exchange yield (preferably higher than 50%, most preferred higher than 75%) are generally preferred for a generation and production of antibodies or fragments thereof, and/or T cell receptors or fragments thereof, as they show sufficient avidity to the MHC molecules and prevent dissociation of the MHC complexes.

Row | peptide exchange yield [%] | Binder
1 | 20 to 50 | TEIFKEHNF
2 | 50 to 75 | SEKETVAYF
3 | 10 to 20 | TEYPVFVY
4 | 50 to 75 | REYEYDLKWEF
5 | 20 to 50 | SQAPAARAF
6 | 50 to 75 | RENQVLGSGW
7 | 50 to 75 | SESTFDRTF
8 | 50 to 75 | TEGKRYFTW
9 | 50 to 75 | SESKTVVTY
10 | 50 to 75 | YEYDLKWEF
11 | 20 to 50 | SESLPKEAF
12 | 50 to 75 | NEIKVYITF
13 | 20 to 50 | REYNEYENI
14 | 50 to 75 | SEYADTHYF

Second part, the binder before the results:

Row | Binder | peptide exchange yield [%]
15 | EENPGKFLF | 50 to 75
16 | GELPAVRDL | 20 to 50
17 | EENKPGIVY | 20 to 50
18 | KEVPRSYEL | 20 to 50
19 | GELGGSVTI | 50 to 75
20 | EYDLKWEF | 20 to 50
21 | EEEHGKGREY | 20 to 50
22 | GEGAYGKVF | > 75
23 | EEFETIERF | 20 to 50
24 | GENDRLNHTY | 20 to 50
25 | AEHNFVAKA | 50 to 75
26 | EVDASIFKAW | 20 to 50
27 | KELPGVKKY | 20 to 50
28 | AEPLVGQRW | 50 to 75
29 | EEVTDRSQL | 20 to 50
30 | AEYKGRVTL | > 75
